{
  "source": "patent US20170322217A1",
  "target": "Rad50 (Homo sapiens (Human)) (UniProt Q92878)",
  "sequence (Q92878 whole entry)": "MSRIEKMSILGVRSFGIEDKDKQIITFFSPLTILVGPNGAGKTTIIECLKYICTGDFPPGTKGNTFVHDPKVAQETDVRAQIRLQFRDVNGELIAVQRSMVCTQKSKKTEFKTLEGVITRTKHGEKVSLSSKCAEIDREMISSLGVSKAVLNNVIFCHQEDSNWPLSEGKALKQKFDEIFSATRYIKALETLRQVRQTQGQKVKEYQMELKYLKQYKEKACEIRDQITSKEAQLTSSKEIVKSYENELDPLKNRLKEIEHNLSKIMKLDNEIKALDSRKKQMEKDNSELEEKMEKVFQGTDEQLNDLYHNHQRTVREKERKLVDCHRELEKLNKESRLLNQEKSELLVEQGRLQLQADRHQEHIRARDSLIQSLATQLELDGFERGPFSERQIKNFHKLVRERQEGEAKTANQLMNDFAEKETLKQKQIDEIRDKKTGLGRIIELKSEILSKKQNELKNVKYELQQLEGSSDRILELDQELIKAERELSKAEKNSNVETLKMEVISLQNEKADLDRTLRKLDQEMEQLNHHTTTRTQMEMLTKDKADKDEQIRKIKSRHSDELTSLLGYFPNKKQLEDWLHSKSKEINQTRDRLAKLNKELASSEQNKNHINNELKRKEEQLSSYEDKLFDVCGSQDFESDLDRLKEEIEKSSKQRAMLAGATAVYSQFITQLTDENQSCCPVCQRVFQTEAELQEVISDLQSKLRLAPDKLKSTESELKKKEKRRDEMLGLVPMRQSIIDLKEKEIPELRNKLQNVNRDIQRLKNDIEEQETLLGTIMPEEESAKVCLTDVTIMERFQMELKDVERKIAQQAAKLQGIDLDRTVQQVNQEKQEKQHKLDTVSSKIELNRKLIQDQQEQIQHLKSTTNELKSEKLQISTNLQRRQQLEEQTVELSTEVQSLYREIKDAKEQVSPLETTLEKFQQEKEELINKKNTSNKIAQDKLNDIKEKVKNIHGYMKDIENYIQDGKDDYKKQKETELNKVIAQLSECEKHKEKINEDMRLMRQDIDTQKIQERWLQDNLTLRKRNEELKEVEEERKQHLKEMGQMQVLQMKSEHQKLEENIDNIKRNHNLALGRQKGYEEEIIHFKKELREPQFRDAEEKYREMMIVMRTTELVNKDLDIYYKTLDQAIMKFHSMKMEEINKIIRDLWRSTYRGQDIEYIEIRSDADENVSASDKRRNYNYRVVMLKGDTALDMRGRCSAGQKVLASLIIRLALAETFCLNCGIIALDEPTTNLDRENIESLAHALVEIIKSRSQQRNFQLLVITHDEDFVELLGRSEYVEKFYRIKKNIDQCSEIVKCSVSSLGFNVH",
  "assay": "SILAC LC-MS/MS of anti-Flag immunoprecipitate, heavy (EVI1-Flag) over light (Flag control)",
  "data": [
    {"substance": "EVI1-Flag construct (Evi1 protein with Flag tag, expressed in SKOV3 cells) (from UniProt Q03112 1-1051)", "values": [
      {"measurement": "Evi1 enrichment (H/L ratio)", "value": "7.11 to 47.8", "unit": "H/L ratio"}
    ]}
  ]
}
